In experiment [1] the target is T1, SpA on S. aureus Newman strain cells (Staphylococcus aureus (Newman strain), UniProt A0A0H3K686 37-477).
T1 construct: also called wild type S. aureus Newman
The experiment in a line: whole cell ELISA.

The target of experiment [2] is T2, Recombinant SpA (Biovision), recombinant 4-domain SpA (Staphylococcus aureus, UniProt P38507 37-269).
T2 construct: domain: SpA IgBP domains 1-4; also called SpA 1-4; SpA1-4
Nature of the experiment: double immunodiffusion in agarose gel.

The target in experiment [3] is T3, Sbi-E (amino acids 28-266) (Staphylococcus aureus, UniProt Q2FVK5 28-266).
T3 construct: range 28-266
The experiment in a line: double immunodiffusion in agarose gel.

In experiment [4] the target is T4, rProtein A (HiTrap rProtein A FF column) (Staphylococcus aureus, UniProt P38507 37-327).
T4 construct: also called SpA
The experiment in a line: affinity chromatography.

B1: Anti-RSV variant antibody MAB5 (antibody, human IgG1, kappa, V domains shown)
VH: QVTLRESGPALVKPTQTLTLTCTFSGFSLSTAGMSVGWIRQPPGKALEWLADIWWDDKKHYNPSLKDRLTISKDTSKNQVVLKVTNMDPADTATYYCARDMIFNFYFDVWGQGTTVTVSS
VL: DIQMTQSPSTLSASVGDRVTITCSASSRVGYMHWYQQKPGKAPKLLIYDTSKLASGVPSRFSGSGSGTEFTLTISSLQPDDFATYYCFQGSGYPFTFGGGTKLEIKR
notes: also called anti-RSV heavy chain constant region variant; control anti-RSV variant antibody
Take B1: the binding result in experiment [1] is on record as “no binding”; in experiment [2] it was “no binding (tested: 1 mg/ml (from paragraph 493, not on the sheet))”; in experiment [3], “no binding (tested: 1 mg/ml (from paragraph 493, not on the sheet))”; in experiment [4], “no binding”.

The values above are taken from patent US20160115222A1 (published 2016).
